The text below walks through data of article PMC9947773, “Modeling C3 glomerulopathies: C3 convertase regulation on an extracellular matrix surface” (Frontiers in Immunology, 2022).

The assay concerns the target T1, C3b (human, UniProt P01024 23-667; P01024 749-1663).
T1 construct: complement C3, human; beta chain of C3b; alpha' chain of C3b (alpha chain without C3a); Coated on MaxGel (ECM) in microtiter wells at 130 ug/ml; also called purified C3b; source: bought: Complement Technology Inc., purified
In words: C3 convertase formation assay (C3CFA), elution and western blot for Bb; C3b coated on MaxGel; FB + FD with Factor H or a Factor H variant as reactant (22.5 ug/ml), 10 min at 37°C; washed x3; eluted. The note with it: both partners purified.

T1 sequence (P01024 23-667, chain 1 of 2): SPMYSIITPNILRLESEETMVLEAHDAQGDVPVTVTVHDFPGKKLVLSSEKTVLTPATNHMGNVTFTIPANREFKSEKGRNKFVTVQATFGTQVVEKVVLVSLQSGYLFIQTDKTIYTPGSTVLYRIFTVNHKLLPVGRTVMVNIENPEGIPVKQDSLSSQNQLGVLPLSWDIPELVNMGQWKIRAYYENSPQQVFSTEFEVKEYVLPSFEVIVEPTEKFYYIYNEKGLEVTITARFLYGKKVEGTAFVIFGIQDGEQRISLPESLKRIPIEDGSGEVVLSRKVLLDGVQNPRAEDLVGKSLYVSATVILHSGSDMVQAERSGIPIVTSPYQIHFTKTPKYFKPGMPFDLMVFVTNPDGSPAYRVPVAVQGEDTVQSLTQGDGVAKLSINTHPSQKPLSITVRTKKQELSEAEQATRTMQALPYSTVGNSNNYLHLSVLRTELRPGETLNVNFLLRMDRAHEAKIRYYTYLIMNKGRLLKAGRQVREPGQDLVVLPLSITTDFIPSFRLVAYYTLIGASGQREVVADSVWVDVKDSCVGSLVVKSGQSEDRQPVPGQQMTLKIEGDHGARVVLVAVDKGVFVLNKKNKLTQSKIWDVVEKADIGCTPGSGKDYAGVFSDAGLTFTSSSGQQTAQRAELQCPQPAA
T1 sequence (P01024 749-1663, chain 2 of 2): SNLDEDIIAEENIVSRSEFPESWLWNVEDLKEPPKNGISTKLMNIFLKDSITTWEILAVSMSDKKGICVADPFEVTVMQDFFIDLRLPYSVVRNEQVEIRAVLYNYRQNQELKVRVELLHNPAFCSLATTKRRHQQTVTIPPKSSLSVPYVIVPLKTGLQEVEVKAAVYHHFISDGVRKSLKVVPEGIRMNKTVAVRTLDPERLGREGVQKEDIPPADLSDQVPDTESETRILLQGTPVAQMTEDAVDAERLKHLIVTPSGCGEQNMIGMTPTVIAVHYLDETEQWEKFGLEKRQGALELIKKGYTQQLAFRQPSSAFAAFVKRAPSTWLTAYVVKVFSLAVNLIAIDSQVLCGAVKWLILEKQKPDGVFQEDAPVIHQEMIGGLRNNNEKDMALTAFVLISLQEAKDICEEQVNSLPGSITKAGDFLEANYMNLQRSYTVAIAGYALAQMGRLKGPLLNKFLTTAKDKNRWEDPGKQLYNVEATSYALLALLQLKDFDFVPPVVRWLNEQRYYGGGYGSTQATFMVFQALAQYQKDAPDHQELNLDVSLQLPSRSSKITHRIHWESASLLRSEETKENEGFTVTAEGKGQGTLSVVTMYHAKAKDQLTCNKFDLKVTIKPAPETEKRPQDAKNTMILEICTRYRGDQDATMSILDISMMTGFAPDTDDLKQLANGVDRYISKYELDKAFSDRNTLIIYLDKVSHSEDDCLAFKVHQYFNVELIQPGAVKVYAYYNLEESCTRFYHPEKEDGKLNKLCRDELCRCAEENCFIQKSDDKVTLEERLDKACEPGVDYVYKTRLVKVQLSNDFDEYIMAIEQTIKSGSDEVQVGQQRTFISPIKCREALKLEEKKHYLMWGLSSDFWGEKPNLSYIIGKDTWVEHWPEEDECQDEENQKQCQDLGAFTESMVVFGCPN

B1: Factor H (natural protein, human, UniProt P08603 19-1231, looked up)
chain: EDCNELPPRRNTEILTGSWSDQTYPEGTQAIYKCRPGYRSLGNVIMVCRKGEWVALNPLRKCQKRPCGHPGDTPFGTFTLTGGNVFEYGVKAVYTCNEGYQLLGEINYRECDTDGWTNDIPICEVVKCLPVTAPENGKIVSSAMEPDREYHFGQAVRFVCNSGYKIEGDEEMHCSDDGFWSKEKPKCVEISCKSPDVINGSPISQKIIYKENERFQYKCNMGYEYSERGDAVCTESGWRPLPSCEEKSCDNPYIPNGDYSPLRIKHRTGDEITYQCRNGFYPATRGNTAKCTSTGWIPAPRCTLKPCDYPDIKHGGLYHENMRRPYFPVAVGKYYSYYCDEHFETPSGSYWDHIHCTQDGWSPAVPCLRKCYFPYLENGYNQNYGRKFVQGKSIDVACHPGYALPKAQTTVTCMENGWSPTPRCIRVKTCSKSSIDIENGFISESQYTYALKEKAKYQCKLGYVTADGETSGSITCGKDGWSAQPTCIKSCDIPVFMNARTKNDFTWFKLNDTLDYECHDGYESNTGSTTGSIVCGYNGWSDLPICYERECELPKIDVHLVPDRKKDQYKVGEVLKFSCKPGFTIVGPNSVQCYHFGLSPDLPICKEQVQSCGPPPELLNGNVKEKTKEEYGHSEVVEYYCNPRFLMKGPNKIQCVDGEWTTLPVCIVEESTCGDIPELEHGWAQLSSPPYYYGDSVEFNCSESFTMIGHRSITCIHGVWTQLPQCVAIDKLKKCKSSNLIILEEHLKNKKEFDHNSNIRYRCRGKEGWIHTVCINGRWDPEVNCSMAQIQLCPPPPQIPNSHNMTTTLNYRDGEKVSVLCQENYLIQEGEEITCKDGRWQSIPLCVEKIPCSQPPQIEHGTINSSRSSQESYAHGTKLSYTCEGGFRISEENETTCYMGKWSSPPQCEGLPCKSPPEISHGVVAHMSDSYQYGEEVTYKCFEGFGIDGPAIAKCLGEKWSHPPSCIKTDCLSLPSFENAIPMGEKKDVYKAGEQVTYTCATYYKMDGASNVTCINSRWTGRPTCRDTSCVNPPTVQNAYIVSRQMSKYPSGERVRYQCRSPYEMFGDEEVMCLNGNWTEPPQCKDSTGKCGPPPPIDNGDITSFPLSVYAPASSVEYQCQNLYQLEGNKRITCRNGQWSEPPKCLHPCVISREIMENYNIALRWTAKQKLYSRTGESVEFVCKRGYRLSSRSHTLRTTCWDGKLEYPTCAKR
notes: complement factor H, human; Used at 22.5 ug/ml; also called FH; WT FH; source: bought: Complement Technology Inc
In the case of B1, the binding result was “binds”.
